# Measured values as given in the supplement of paper PMC9170038.
# Test system: K4 kissing-loop RNA reporter
# Assay: apparent KD of K4 kissing-loop reporter; higher = weaker reporter binding
# Settings: Eterna round: R107; input ligand: arginine 13.2 mM
# Protocol: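 RNA-MaP round R107: designed RNA switches with theophylline, tryptophan, arginine or FMN aptamers are transcribed on-chip within common flanks. They are titrated with a labelled K4 kissing-loop RNA reporter in RNA-MaP buffer (100 mM Tris pH 7.5, 80 mM KCl, 4 mM MgCl2), without ligand or with the indicated ligand. Median apparent KD per design.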
# 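Further: bound reporter read as fluorescence of individual clusters on recovered sequencing chips by microscopy, with normalized cluster intensities fitted with a binding model.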
row,Sequence,apparent KD of K4 kissing-loop reporter
1,UGUCAUUGGUCGGCCGCCACUAGGACCGGGUAUAACCUAGUGAUGUUAGUGAGUACGGCCGCCACUAGGACCGGGACCGAUGACU [KL-SSTryp-B120 #DoubleAptamer],319 nM
2,UUCUUGAUGGAAACAUCGAGGAUUACUGAUACCAGUAUCGAUAGAUACCCUUGGCAGCAGUAUCGGUGAUCACGAGUGAUGUUCG [Ex Theophylline A K4 11],576 nM
3,CGAUGGAUGGCAGGAUAUAGACAUUGAGUGAUGUUCGAUGAUUAUCCAUAUUCCCGUCACCUAAGACUAGAAGGGCCAUCCAUCG,167 nM
4,ACCUACGAUCACAAUAGUGAUUGUAGGAACUAGGAUAUGCUGAAAAGCAGAAGGAGUGAUGUUCCGUCAUGAAUAACAUGACAAA [FmnAX 5 #OpenEnded #K4Late #CoaxialStacking],525 nM
5,UGAGAUAUGAGGGAUACCAGCCAUAAGGAAAGUGUGAUGAGUGAUGUUCUGACAAGCCAAGGCCCUUGGCAGCUUUAAUAGCAUC [whbob_SS_Theo_B_th77],191 nM
6,GUGCGCGCGGCGGCCGCCACUCGCAUGAGAGUGAUGUUCUCGGGACUGACGGAAGUCAGUCAUGGGAGGACCGGGCCGGGCUGCG [#2 Same State - Tryptophan B Attempt #13 (HarryS)],958 nM
7,UGGAGUUGACGAAAAGUCAACUCCAGAGAAGGAGCGGACGAAAGUCCAGGUAGGUCGCUCACUACCAGUGAUGUUGGUACUUGAA,335 nM

# Same assay, conditions: Eterna round: R107; input ligand: none
row,Sequence,apparent KD of K4 kissing-loop reporter
1,AAAUAUUGUUACCUGUUAACAUAGGGCCAACGAGGACCGGUACGGCCGCCACUCGUCUCAUAGCGAGUGAUGUUCGCACCGCCCA,76.6 nM
2,UGACUGGACUGAAGGAGCGCAAAACUCCUAGUGAUGUUAGGAAAACGAGACAAAGUCUCGAUGCAGGUAGGUCGCAGUCUAGUCU,185 nM
3,AGACCACAAAGUGGUCAGUGUUCGCUGCGGCGAGGACCGGUACGGCCGCCACUCGCGAGUGAUGUUCGCGAGCGCAGCGAACACA [Omei KL Tryp A Exc A v3],92.7 nM
4,CGAGUGAUGUUCGAAGAGUUGUUAAGCGAUACCAGCCAGGAAACUGGCCCUUGGCAGCGUAAUAAAUAAAUAAAUAAAUGAUCAC [Theophylline A Exclusion; Euphoria Solution],472 nM
5,AAUAAAAUCACGGCCGCCACUGAUUACCAUAUUAGGAGUGAUGUUCCUAUGACUAUAUAAUUUAACAGGACCGGGUGAAUAUUUA [JR_ExcTryptoB_Sub011],107 nM
6,UGGAGUUGACGAAAAGUCAACUCCUGGGAAGGAGCGGACGAAAGUCCAGGUAGGUCGCCCACUACCAGUGAUGUUGGUACUUCAA,271 nM
7,CAUGGAGUGAUGCUCCAUGAUCGGGCUUGGCAGGAUAUGGGAUUUUCCAGAAGGGUCGAUCCCAGCGAGUGAUGUUCGCUGGUCU [Exclusion FMN A GF 26],126 nM
8,UUAGUGACAAGUCAGAUUCUGACAAUUGAUACCAGAUAGAAUUCUAUCCCUUGGCAGCAGUGAUGUUGUUGCAAAUAGUCACAUU [AK3 Exc Theophylline A],251 nM
9,GCAGACACGCAGUGAUGUUGCGAAACGGAAGGAGCGCGUGAAAACGCAGGUAGGUCGCCGACACAUAAAUUAUAAUUUUGUUUGC [Arginine A K4 14],246 nM
10,UUUUGGUUCUGAGGAUAUUCGAAGAAAUAUAGUGAUGUUAUAUAAGGAGGAGGAUGGAGGGAGGAAGGAGAAGGCAGAAGAGGAG [ExFMNB.I],700 nM
11,AAGCGUGUGGCGGCCGCCACUAGUCUCCAGUGAUGUUGGAGAGAUCACGUAAGUGAUCUCCGACAUAGGACCGGGCCAUAUGGAA [Same State - Tryptophan B (Freestyle 23)],186 nM
12,UUUUUAAUCGCAGAUACCAGUCCAGAAUGAAUACUAUAGUGAUGUUAUAAUAAAGGGAAGGACCCUUGGCAGCUGUACUAUAUUU [AstrosSsTheB#6],398 nM
13,GCAAACCUCAGUGAUGUUGAGAAAUCGGAAGGAGCGCGUGAAAACGCAGGUAGGUCGCCGACACAUGAAGUAUCUUCGUGUUUGC [Arginine A K4 22],316 nM
14,CCGGUUCCAACGCUGACUGAAGAACAUGAUACCAGUCGAGGACUCGACCCUUGGCAGCAUUAUAGAGUGAUGUUCGCUUCAGAAA [theeternabot_sameState_KL_Theo_A_15],189 nM
15,AGAGUUAUGAGAGGAUAUGCGGCUAGUACUCAAAGAGUACUAGCAGCGGAGUGAUGUUCUGUGAAAGCAGAAGGUUCAUAACUCA [#07 K4 FMN B Same State],1100 nM
16,CGCGACGUGGUCACGCCAGUCUCGUUAACCAAGGAUAUUGAGAAGACAAGAAGGUGGAUGUACCAUAGUGAUGUUGUGGUCAGUA [theeternabot_sameState_KL_FMN_A_17],465 nM
17,AAGUGUGUGGCGGCCGCCACUAGAAUCCAGUGAUGUUGGAGUUAUCAUAUAAUUGAUAAUCAACAUAGGACCGGGCCAUAUAGAA [Same State - Tryptophan B (Freestyle 6)],540 nM
18,UUUUAAAUGUCUGAUACCAGAGAAAAUAUAUGUAGUGAUGUUAUAUACAAAUUAAAUAAGCUCCCUUGGCAGCAGUAUUAAUUUU [AstrosExc-TheB#10],758 nM
19,CCUUCCGACACGGCCGCCACUAAUUUCAUCAGAUUGCCCGGAUUUCCAAGAUAGUGAUGUUGUACUAGGACCGGGUGUCAGGUCG [theeternabot_exclusion_KL_Trp_B_16],816 nM
20,AAGUGUUCUAGUGAUACCAGACAUUUCAAUUACAUUAAUAUAGCUAAGUGAUGUUUAGCAGUCCCUUGGCAGCACUAUUUCACUA [JR_SSTheophyB_Sub016],135 nM
21,CACGAUGAAUUCUCUAGGAGUGAUGUUUUUCGAGGACCGGUACGGCCGCCACUCGGACCAGGAACGUGGGAGCGGCGAAAAGACU [jbmullin],930 nM
22,AUGAGGUGACUAAAUAAUAAGGGAAUUGAUACCAGACAGAAUUCUGUCCCUUGGCAGCAGUGAUGUUGUUGCAAGUCAGCUCAAA [AK1.1 Exc Theophylline A],206 nM
23,UGUCAUUGGUCGGCCGCCACUAGGACCGGGUAUAACCUAGUGAUGUUAGUGAGUACGGCCGCCACUAGGACCGGGACCGAUGACU [KL-SSTryp-B120 #DoubleAptamer],857 nM
24,UUCUUGAUGGAAACAUCGAGGAUUACUGAUACCAGUAUCGAUAGAUACCCUUGGCAGCAGUAUCGGUGAUCACGAGUGAUGUUCG [Ex Theophylline A K4 11],785 nM
25,CGAUGGAUGGCAGGAUAUAGACAUUGAGUGAUGUUCGAUGAUUAUCCAUAUUCCCGUCACCUAAGACUAGAAGGGCCAUCCAUCG,205 nM
26,ACCUACGAUCACAAUAGUGAUUGUAGGAACUAGGAUAUGCUGAAAAGCAGAAGGAGUGAUGUUCCGUCAUGAAUAACAUGACAAA [FmnAX 5 #OpenEnded #K4Late #CoaxialStacking],495 nM
27,UGAGAUAUGAGGGAUACCAGCCAUAAGGAAAGUGUGAUGAGUGAUGUUCUGACAAGCCAAGGCCCUUGGCAGCUUUAAUAGCAUC [whbob_SS_Theo_B_th77],280 nM
28,GUGCGCGCGGCGGCCGCCACUCGCAUGAGAGUGAUGUUCUCGGGACUGACGGAAGUCAGUCAUGGGAGGACCGGGCCGGGCUGCG [#2 Same State - Tryptophan B Attempt #13 (HarryS)],208 nM
29,UGGAGUUGACGAAAAGUCAACUCCAGAGAAGGAGCGGACGAAAGUCCAGGUAGGUCGCUCACUACCAGUGAUGUUGGUACUUGAA,255 nM

# Same assay, conditions: Eterna round: R107; input ligand: theophylline 20 uM
row,Sequence,apparent KD of K4 kissing-loop reporter
1,AAAUAUUGUUACCUGUUAACAUAGGGCCAACGAGGACCGGUACGGCCGCCACUCGUCUCAUAGCGAGUGAUGUUCGCACCGCCCA,123 nM
2,UGACUGGACUGAAGGAGCGCAAAACUCCUAGUGAUGUUAGGAAAACGAGACAAAGUCUCGAUGCAGGUAGGUCGCAGUCUAGUCU,194 nM
3,AGACCACAAAGUGGUCAGUGUUCGCUGCGGCGAGGACCGGUACGGCCGCCACUCGCGAGUGAUGUUCGCGAGCGCAGCGAACACA [Omei KL Tryp A Exc A v3],65 nM
4,CGAGUGAUGUUCGAAGAGUUGUUAAGCGAUACCAGCCAGGAAACUGGCCCUUGGCAGCGUAAUAAAUAAAUAAAUAAAUGAUCAC [Theophylline A Exclusion; Euphoria Solution],430 nM
5,AAUAAAAUCACGGCCGCCACUGAUUACCAUAUUAGGAGUGAUGUUCCUAUGACUAUAUAAUUUAACAGGACCGGGUGAAUAUUUA [JR_ExcTryptoB_Sub011],106 nM
6,UGGAGUUGACGAAAAGUCAACUCCUGGGAAGGAGCGGACGAAAGUCCAGGUAGGUCGCCCACUACCAGUGAUGUUGGUACUUCAA,254 nM
7,CAUGGAGUGAUGCUCCAUGAUCGGGCUUGGCAGGAUAUGGGAUUUUCCAGAAGGGUCGAUCCCAGCGAGUGAUGUUCGCUGGUCU [Exclusion FMN A GF 26],151 nM
8,UUAGUGACAAGUCAGAUUCUGACAAUUGAUACCAGAUAGAAUUCUAUCCCUUGGCAGCAGUGAUGUUGUUGCAAAUAGUCACAUU [AK3 Exc Theophylline A],242 nM
9,GCAGACACGCAGUGAUGUUGCGAAACGGAAGGAGCGCGUGAAAACGCAGGUAGGUCGCCGACACAUAAAUUAUAAUUUUGUUUGC [Arginine A K4 14],237 nM
10,UUUUGGUUCUGAGGAUAUUCGAAGAAAUAUAGUGAUGUUAUAUAAGGAGGAGGAUGGAGGGAGGAAGGAGAAGGCAGAAGAGGAG [ExFMNB.I],923 nM
11,AAGCGUGUGGCGGCCGCCACUAGUCUCCAGUGAUGUUGGAGAGAUCACGUAAGUGAUCUCCGACAUAGGACCGGGCCAUAUGGAA [Same State - Tryptophan B (Freestyle 23)],443 nM
